# B1: Serine/arginine-rich splicing factor 3 (Homo sapiens), P84103 (parent)
# chain: MHRDSCPLDCKVYVGNLGNNGNKTELERAFGYYGPLRSVWVARNPPGFAFVEFEDPRDAADAVRELDGRTLCGCRVRVELSNGEKRSRNRGPPPSWGRRPRDDYRRRSPPPRRRSPRRRSFSRSRSRSLSRDRRRERSLSRERNHKPSRSFSRSRSRSRSNERK
# partner: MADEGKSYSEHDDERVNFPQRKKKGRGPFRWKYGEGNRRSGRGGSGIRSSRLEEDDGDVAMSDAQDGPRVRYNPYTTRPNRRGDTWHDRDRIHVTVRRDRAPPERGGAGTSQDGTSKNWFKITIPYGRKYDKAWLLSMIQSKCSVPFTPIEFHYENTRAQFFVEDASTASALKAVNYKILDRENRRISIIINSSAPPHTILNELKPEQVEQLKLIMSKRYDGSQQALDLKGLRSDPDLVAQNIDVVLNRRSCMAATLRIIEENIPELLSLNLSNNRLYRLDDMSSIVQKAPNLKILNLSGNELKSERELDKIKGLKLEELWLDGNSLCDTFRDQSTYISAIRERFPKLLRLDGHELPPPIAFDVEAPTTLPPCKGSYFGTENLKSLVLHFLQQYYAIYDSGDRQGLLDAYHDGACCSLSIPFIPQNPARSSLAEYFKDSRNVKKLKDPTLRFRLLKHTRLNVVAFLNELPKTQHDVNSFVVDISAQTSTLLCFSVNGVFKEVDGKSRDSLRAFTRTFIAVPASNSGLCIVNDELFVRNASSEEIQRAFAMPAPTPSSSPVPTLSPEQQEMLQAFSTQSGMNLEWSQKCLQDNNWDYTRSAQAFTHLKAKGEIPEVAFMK
# B2: Serine/arginine-rich splicing factor 7 (Homo sapiens), Q16629 (parent)
# chain: MSRYGRYGGETKVYVGNLGTGAGKGELERAFSYYGPLRTVWIARNPPGFAFVEFEDPRDAEDAVRGLDGKVICGSRVRVELSTGMPRRSRFDRPPARRPFDPNDRCYECGEKGHYAYDCHRYSRRRRSRSRSRSHSRSRGRRYSRSRSRSRGRRSRSASPRRSRSISLRRSRSASLRRSRSGSIKGSRYFQSPSRSRSRSRSISRPRSSRSKSRSPSPKRSRSPSGSPRRSASPERMD
# partner: B1 partner
# Variants of: B1
# Conditions: with nxf1_human NXF1, Q9UBU9
row,effect of a mutation on the interaction,Variant
1,disrupting interaction,MHRDSCPLDCKVYVGNLGNNGNKTELERAFGYYGPLRSVWVARNPPGFAFVEFEDPRDAADAVRELDGRTLCGCRVRVELSNGEKRSRNEGPPPSWGRRPRDDYRRRSPPPRRRSPRRRSFSRSRSRSLSRDRRRERSLSRERNHKPSRSFSRSRSRSRSNERK [R90E]

# Variants of: B1
# Conditions: with nxf1_human NXF1, Q9UBU9
# Remark: another data set of the same source
row,effect of a mutation on the interaction,Variant
1,disrupting interaction,MHRDSCPLDCKVYVGNLGNNGNKTELERAFGYYGPLRSVWVARNPPGFAFVEFEDPRDAADAVRELDGRTLCGCRVRVELSNGEKRSENRGPPPSWGRRPRDDYRRRSPPPRRRSPRRRSFSRSRSRSLSRDRRRERSLSRERNHKPSRSFSRSRSRSRSNERK [R88E]

# Variants of: B1
# Conditions: with nxf1_human NXF1, Q9UBU9
# Remark: another data set of the same source
row,effect of a mutation on the interaction,Variant
1,disrupting interaction,MHRDSCPLDCKVYVGNLGNNGNKTELERAFGYYGPLRSVWVARNPPGFAFVEFEDPRDAADAVRELDGRTLCGCRVRVELSNGEKESRNRGPPPSWGRRPRDDYRRRSPPPRRRSPRRRSFSRSRSRSLSRDRRRERSLSRERNHKPSRSFSRSRSRSRSNERK [R86E]

# Variants of: B2
# Conditions: with nxf1_human NXF1, Q9UBU9
row,effect of a mutation on the interaction,Variant
1,disrupting interaction,MSRYGRYGGETKVYVGNLGTGAGKGELERAFSYYGPLRTVWIARNPPGFAFVEFEDPRDAEDAVRGLDGKVICGSRVRVELSTGMPRRSRFDRPPAREPFDPNDRCYECGEKGHYAYDCHRYSRRRRSRSRSRSHSRSRGRRYSRSRSRSRGRRSRSASPRRSRSISLRRSRSASLRRSRSGSIKGSRYFQSPSRSRSRSRSISRPRSSRSKSRSPSPKRSRSPSGSPRRSASPERMD [R98E]
2,disrupting interaction,MSRYGRYGGETKVYVGNLGTGAGKGELERAFSYYGPLRTVWIARNPPGFAFVEFEDPRDAEDAVRGLDGKVICGSRVRVELSTGMPRRSRFDRPPAERPFDPNDRCYECGEKGHYAYDCHRYSRRRRSRSRSRSHSRSRGRRYSRSRSRSRGRRSRSASPRRSRSISLRRSRSASLRRSRSGSIKGSRYFQSPSRSRSRSRSISRPRSSRSKSRSPSPKRSRSPSGSPRRSASPERMD [R97E]

# Variants of: B2
# Conditions: with nxf1_human NXF1, Q9UBU9
# Remark: another data set of the same source
row,effect of a mutation on the interaction,Variant
1,disrupting interaction,MSRYGRYGGETKVYVGNLGTGAGKGELERAFSYYGPLRTVWIARNPPGFAFVEFEDPRDAEDAVRGLDGKVICGSRVRVELSTGMPRESRFDRPPARRPFDPNDRCYECGEKGHYAYDCHRYSRRRRSRSRSRSHSRSRGRRYSRSRSRSRGRRSRSASPRRSRSISLRRSRSASLRRSRSGSIKGSRYFQSPSRSRSRSRSISRPRSSRSKSRSPSPKRSRSPSGSPRRSASPERMD [R88E]
2,disrupting interaction,MSRYGRYGGETKVYVGNLGTGAGKGELERAFSYYGPLRTVWIARNPPGFAFVEFEDPRDAEDAVRGLDGKVICGSRVRVELSTGMPERSRFDRPPARRPFDPNDRCYECGEKGHYAYDCHRYSRRRRSRSRSRSHSRSRGRRYSRSRSRSRGRRSRSASPRRSRSISLRRSRSASLRRSRSGSIKGSRYFQSPSRSRSRSRSISRPRSSRSKSRSPSPKRSRSPSGSPRRSASPERMD [R87E]

# — IntAct's records for PubMed 17036044
